Experiments:
[1] = target: T1, Trx-His-OsbZIP47 FL (Oryza sativa) (UniProt Q5Z6N9); experiment: MST; conditions: MST: 10 mM HEPES-KOH pH 8.0, 50 mM NaCl, 0.5% Tween-20, 0.5 mM EDTA, 1 mM MgCl2, 10% glycerol, 80 nM protein, DNA 3.05 nM-100 uM, temperature not stated, EMSA: …
T1 sequence: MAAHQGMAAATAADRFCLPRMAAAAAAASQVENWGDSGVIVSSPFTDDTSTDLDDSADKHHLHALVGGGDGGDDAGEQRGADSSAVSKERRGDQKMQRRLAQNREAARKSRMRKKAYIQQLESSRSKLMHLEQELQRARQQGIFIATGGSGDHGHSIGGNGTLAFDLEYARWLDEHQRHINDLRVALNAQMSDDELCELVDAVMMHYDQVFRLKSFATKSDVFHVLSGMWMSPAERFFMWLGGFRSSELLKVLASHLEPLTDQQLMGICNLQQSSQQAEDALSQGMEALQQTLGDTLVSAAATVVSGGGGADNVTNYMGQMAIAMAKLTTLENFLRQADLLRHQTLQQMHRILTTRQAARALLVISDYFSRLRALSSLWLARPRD

[2] = target: the molecule itself; experiment: non-reducing SDS-PAGE; purified protein treated with 2 mM diamide, with 20 mM DTT, or with 2 mM diamide followed by 20 mM DTT; non-reducing 10% SDS-PAGE

For “CAGCTGGCCCTGACGTCAGCAACCGG (double strand) [OsFCP1 locus EMSA-371]”, the Kd ([1]; oxidized, 1 mM oxidized glutathione) was 2160 nM and the Kd ([1]; reduced, 20 mM DTT) was 815 nM.

B1: Thioredoxin-His-tagged OsbZIP47FL (natural protein, rice (Oryza sativa), UniProt Q5Z6N9 1-385, looked up)
chain: T1 sequence
notes: full-length CDS, amino acid 1 to 385; also called Trx-His-OsbZIP47 FL; Trx-His OsbZIP47; source: E. coli Rosetta (DE3), pET32a, purified
B1: binds [2].
